4 molecules from US20160244529A1 (ROTTAPHARM BIOTECH S R L, published 2016) can be followed below.

The term Kd denotes a measure of binding affinity in units of concentration. Broadly, the koff is the rate constant with which the complex falls apart. As usually defined, the kon is the rate constant with which the complex forms.

For test [1], the target named is T1, human Ig1,2 TrkA (recombinant D4-D5 domain of human TrkA receptor) (human, UniProt P04629 191-392).
T1 construct: also called hTrkA Ig1,2; TrkA Ig1,2
T1 chain: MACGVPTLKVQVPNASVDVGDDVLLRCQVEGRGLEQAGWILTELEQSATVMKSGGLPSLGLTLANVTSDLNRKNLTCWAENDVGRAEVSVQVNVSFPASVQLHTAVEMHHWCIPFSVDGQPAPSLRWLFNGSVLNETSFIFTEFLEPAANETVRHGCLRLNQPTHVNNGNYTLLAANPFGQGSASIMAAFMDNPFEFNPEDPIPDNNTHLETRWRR
Nature of the test: SPR (Biacore X-100); scFv immobilised on CM5 chip, human Ig1,2 TrkA injected. The method, then: (§1) The antibodies were also shown to be specific for hTrkA and mTrkA by relative binding to the BIACore sensor chips coated with the appropriate antigen. Antibodies were immobilized by ammine coupling to Biosensor CM5 sensorchips (Pharmacia) according to the manufacturers instructions. Anti-TrkA scFv proteins were diluted at 20-50 μg/ml in suitable pre-concentration buffer (at least 2 pH unit below the pI of the scFv in order to get a net positive charge), chosen among the Acetate buffers. The scFvs were immobilized at 100 RU to get a low density immobilization. As binder, the recombinant protein consisting of D4-D5 domain of human and murine TrkA receptor (hTrkA Ig1,2 and mTrkA Ig1,2 respectively) were injected over the immobilized scFv with a contact time of 60 seconds and with a dissociation time of 400 seconds and the assay workflow placed 5 serial dilutions of the TrkA Ig1,2 (starting in the micromolar range and diluting 1:2 each time). The regeneration condition were mild (contact time 30 seconds, 10 mM Glycine pH2). On the basis of the resulting sensorgrams, the concentrations of TrkA Ig1,2 were adjusted to optimize, contact time, dissociation time and regeneration. Data were analysed by Bioevaluation Software (see results on Table II and Table III). The quality of the data fitting were checked by the value of Chi² and of the U-value.
(§2) We have carried out surface plasmon resonance (SPR) analyses to determine the binding kinetics of a panel of isolated anti-TrkA scFvs (SEQ ID NOs: 1, 2, 3, 4, 5, 6, 7, 8, 9, 10, 11, 12, 13, 14, 15 and 16). The scFvs were immobilized on a CM5 chip followed by injections at various concentration of human and murine Ig 1,2 TrkA (SEQ ID NO: 78) and mouse Ig1,2 TrkA (SEQ ID NO: 79).
Background: Surface plasmon resonance follows binding to a sensor surface in real time, without labels.

In test [2] the target is T2, mouse Ig1,2 TrkA (recombinant D4-D5 domain of murine TrkA receptor) (mouse, UniProt Q3UFB7 193-413).
T2 construct: also called mTrkA Ig1,2
Nature of the test: SPR (Biacore X-100); scFv immobilised on CM5 chip, mouse Ig1,2 TrkA injected. The procedure: as §1, §2

The target of the next test is T3, human TrkB immunoadhesin (human; Camelus dromedarius, UniProt Q16620 32-430).
T3 construct: extracellular domain; also called hTrkB-Fc; TrkB immunoadhesins; not shown: Fc portion (immunoglobulin heavy chain constant region) of IgG2a camel antibody (Camelus dromedarius)
Nature of the test: specificity ELISA, antigens coated at 2 µg/mL, scFv at 50 ug/mL (upper panel) and 5 ug/mL (lower panel), OD 450 nm. The procedure: (§3) FIG. 3. Specificity ELISA of isolated anti-TrkA scFvs versus human TrkA immunoadhesin (hTrkA-Fc), human TrkB immunoadhesins (hTrkB-Fc), human TrkC immunoadhesins (hTrkC-Fc) and human p75 immunoadhesins (hp75-Fc). Human antigens were coated at 2 μg/mL. Anti-TrkA scFvs were used at 50 μg/mL (upper panel) and/or 5 μg/mL (lower panel). The mean absorbance at 450 nm of the experiments performed in duplicate wells is shown with SD indicated by the bars.

A further test concerns the target T4, human TrkC immunoadhesin (human; Camelus dromedarius, UniProt Q16288 32-429).
T4 construct: extracellular domain; also called hTrkC-Fc; TrkC immunoadhesins; not shown: Fc portion (immunoglobulin heavy chain constant region) of IgG2a camel antibody (Camelus dromedarius)
The description is as above. The procedure: as §3

For another test, the target named is T5, human p75 immunoadhesin (human; Camelus dromedarius, UniProt P08138 29-250).
T5 construct: extracellular domain; also called hp75-Fc; p75NTR immunoadhesin; not shown: Fc portion (immunoglobulin heavy chain constant region) of IgG2a camel antibody (Camelus dromedarius)
T5 sequence (looked up): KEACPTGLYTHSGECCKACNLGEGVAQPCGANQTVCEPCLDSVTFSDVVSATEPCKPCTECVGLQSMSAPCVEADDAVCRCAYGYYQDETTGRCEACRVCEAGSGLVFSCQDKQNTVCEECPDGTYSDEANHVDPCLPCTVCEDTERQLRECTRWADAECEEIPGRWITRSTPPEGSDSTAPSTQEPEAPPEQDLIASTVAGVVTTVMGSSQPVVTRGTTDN
The description is as above. The method, then: as §3

For test [3], the target named is T6, human TrkA receptor (native, on TF-1 cells) (human, UniProt P04629 33-796).
T6 construct: also called TF1 expressing TrkA receptor; TF-1 cell line expressing human TrkA receptor
Nature of the test: chip-based flow cytometry (Agilent Bioanalyzer 2100) on TF-1 cells expressing human TrkA; scFv at 5 µg/ml per paragraph 159. The procedure:
FIG. 5. FACS analysis performed with Bioanalyzer 2100. A cell fluid chip-based fluorescent cytometric assay that runs on Bioanalyzer 2100 (Agilent) for fast characterization of small population cell phenotypes was assessed. The assay determines the expression of specific cell surface markers. In this experiment, the specificity of scFvs on TF-1 cell line expressing human TrkA receptor was assessed. Six samples can be analyzed on each chip in one automated process. Results were in good agreement with conventional flow cytometry in quantisation.
10⁶ cells/sample=tot: 6×10⁶ cells are first centrifuged at 350 g for 5 min at room temperature (RT) and wash with 12 ml of Staining Buffer (SB) at RT. The pellet was resuspended in 3 ml of SB at 4° C. and aliquot 0.5 ml of suspension in 1.5 ml conical tubes. Cells were centrifuged again at 350 g for 5 min at 4° C. and the pellet was resuspended in 1 ml HBSS at 4° C. 125 μl 16% p-formaldehyde (final conc 1.7%) was added into each tube and then the sample was incubated for 10 min at 4° C. on tube rotator. After 10 minutes, 75 μl of 10% detergent solution-Tween 20 (final conc 0.6%) was added and the samples were then incubated for 10 min at 4° C. on tube rotator. Samples were then washed once with FACS Buffer (0.8 ml/sample) at 4° C. and then centrifuged at 350 g for 5 min at 4° C. Cells were resuspended with 80 μl/sample of FACS Buffer. 20 μl of a 5× primary antibody solution were added (final concentration of scFvs is 5 μg/ml). After incubation for 1 hour at 4° C. on tube rotator samples were washed with FACS Buffer (0.5 ml/sample) at 4° C. and then centrifuged 5 min at 350 g at 4° C. Cells were resuspended with 80 μl/sample of FACS Buffer. 20 μl of a 5× secondary antibody solution were added. Final concentration of mouse anti-V5 antibody is 0.20 μg/ml. The samples were incubated for 1 hour at 4° C. on tube rotator. After incubation for 1 hour at 4° C. on tube rotator samples were washed with FACS Buffer (0.5 ml/sample) at 4° C. and then centrifuged 5 min at 350 g at 4° C. Cells were resuspended with 80 μl/sample of FACS Buffer. 20 μl of a 5× tertiary antibody solution were added. Final concentration of anti-mouse IgG-Cy5 is 4 μg/ml (1:250 diluted). The samples were incubated for 1 hour at 4° C. on tube rotator.

Test [4] has as its target T6, human TrkA receptor (native, on TF-1 …). Nature of the test: cell-based or functional assay.
The target in test [5] is T1, human Ig1,2 TrkA (recombinant D4-D5 …). Nature of the test: SPR (Biacore X-100) kinetic analysis.
For test [6], the target named is T2, mouse Ig1,2 TrkA (recombinant D4-D5 …). Nature of the test: SPR (Biacore X-100) kinetic analysis.

Several values for one entry are separate records, joined by “and”; a condition that tells them apart may be missing. Equal entries are not always repeated.

T6 sequence (P04629 33-796 limits assumed): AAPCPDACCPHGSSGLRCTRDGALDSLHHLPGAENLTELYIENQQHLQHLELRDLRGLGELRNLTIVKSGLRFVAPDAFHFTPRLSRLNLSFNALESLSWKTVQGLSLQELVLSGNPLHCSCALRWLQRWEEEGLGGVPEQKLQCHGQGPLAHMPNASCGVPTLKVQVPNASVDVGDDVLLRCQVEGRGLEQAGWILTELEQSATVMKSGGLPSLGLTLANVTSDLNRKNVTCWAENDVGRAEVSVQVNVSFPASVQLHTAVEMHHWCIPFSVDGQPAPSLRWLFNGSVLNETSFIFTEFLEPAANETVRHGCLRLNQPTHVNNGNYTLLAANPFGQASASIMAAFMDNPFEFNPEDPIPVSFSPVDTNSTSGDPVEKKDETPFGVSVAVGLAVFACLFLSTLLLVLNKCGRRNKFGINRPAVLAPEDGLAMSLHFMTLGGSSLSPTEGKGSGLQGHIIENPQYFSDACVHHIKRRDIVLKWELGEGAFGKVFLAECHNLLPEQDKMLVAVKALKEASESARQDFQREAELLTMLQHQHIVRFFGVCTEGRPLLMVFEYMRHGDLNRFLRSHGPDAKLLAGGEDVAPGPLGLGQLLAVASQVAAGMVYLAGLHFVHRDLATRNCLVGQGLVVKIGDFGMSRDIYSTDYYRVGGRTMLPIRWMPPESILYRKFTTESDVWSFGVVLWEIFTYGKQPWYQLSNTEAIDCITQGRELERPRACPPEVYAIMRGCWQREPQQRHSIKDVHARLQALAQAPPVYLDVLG
T2 sequence (Q3UFB7 other isoform, or with tags, fused parts or gaps limits assumed): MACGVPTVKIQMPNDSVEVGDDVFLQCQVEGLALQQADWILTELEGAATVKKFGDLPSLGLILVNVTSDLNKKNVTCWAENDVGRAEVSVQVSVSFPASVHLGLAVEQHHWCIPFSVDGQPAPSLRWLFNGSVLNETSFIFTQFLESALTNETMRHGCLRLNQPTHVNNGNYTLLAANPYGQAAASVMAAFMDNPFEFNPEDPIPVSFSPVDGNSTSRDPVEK
T3 sequence (Q16620 32-430): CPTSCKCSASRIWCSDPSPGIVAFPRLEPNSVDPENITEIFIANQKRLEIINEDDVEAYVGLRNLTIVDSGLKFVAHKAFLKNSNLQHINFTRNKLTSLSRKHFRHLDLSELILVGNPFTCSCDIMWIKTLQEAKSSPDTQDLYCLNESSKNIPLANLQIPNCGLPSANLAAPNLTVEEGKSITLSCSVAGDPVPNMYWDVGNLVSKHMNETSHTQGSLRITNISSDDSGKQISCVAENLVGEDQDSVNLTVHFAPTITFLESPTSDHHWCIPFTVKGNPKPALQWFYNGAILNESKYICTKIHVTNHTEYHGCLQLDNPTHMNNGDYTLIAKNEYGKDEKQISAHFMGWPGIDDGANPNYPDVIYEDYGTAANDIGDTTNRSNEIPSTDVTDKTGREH

B1: anti-TrkA scFv CRB0022 (scFv)
scFv: DIVLTQSPALMSASPGEKVTMTCSASSSVSYMYWYQQKPRSSPKPWIYLTSNLASGVPARFSGSGSGTSYSLTISSMEAEDAATYYCQQWSSNPYTFGGRTRLEIKPSGGSTSGSGKPGSGEDSSGAQVQLQQSGAELVKPGASVELSCTASGFNIKDTYMHWVKQRPEQGLEWIGGIDPANGNTIYVPKFQGKATITADTSSNTAYLQLSSLTSEDTAVYYCARGGYDFDYAMDYWGQGTSVTVSS
notes: From mSPLINT selection
As to B1, the Kd amounted to 0.0032 µM in [1] and 0.00116 µM in [2]. The koff in test [1] turned out to be 2.94e-05 s⁻¹; in test [2], 1.09e-05 s⁻¹. Besides, the kon in [1] is 9190 M⁻¹ s⁻¹; in [2], 9430 M⁻¹ s⁻¹. Also, the binding result with human TrkB immunoadhesin is on record as “no binding (tested: 50 ug/mL)”; in the test with human TrkC immunoadhesin, “no binding (tested: 50 ug/mL)”; in the test with human p75 immunoadhesin, “no binding (tested: 50 ug/mL)”; in test [3], “binds”.

B2: anti-TrkA scFv CRB0072 (scFv)
scFv: DIQMTQSPISLSATVGDRVTITCRASQSIGRYLNWYQQKPGKAPKLLIYGASSLESGVPSRFSGSGSGTVFTLTISGLQPEDFATYCCQQSHSTAWTFGQGTKVEIKSGGSTSGSGKPGSGEGSSGTEVQLVETGGGLVQPGSSLRLSCATSGFTFINYGVHWVRQPPGKGLEWVASIWYEGSNEKYADSVKGRFTISRDNSRYTLHLQLNSLRAEDTADYYCVRDRGTGDYRNSRFYYGMDVWGQGTTVTVSS
notes: From hSPLINT_09 selection
On to B2, for which the Kd in test [1] was 0.00204 µM; in [2] it was 0.017 µM. Moreover, the off-rate constant (koff) stood at 7.48e-06 s⁻¹ in [1] and 4.93e-05 s⁻¹ in test [2]. In addition, the association rate constant (kon) in test [1] came to 3680 M⁻¹ s⁻¹; in [2] it was 2910 M⁻¹ s⁻¹. The binding result with human TrkB immunoadhesin is on record as “no binding (tested: 50 ug/mL)”; with human TrkC immunoadhesin, “no binding (tested: 50 ug/mL)”; with human p75 immunoadhesin it was “no binding (tested: 50 ug/mL)”; in test [3] it was “binds”.

B3: CRB0089_IgG4 (antibody, V domains shown)
VH: QVQLQESGPGLVKPSQTLSLTCAISGDSVSSNSAAWNWIRQSPSRGLEWLGRTFHRSRWYNEYPVSVRSRITINPDTSNNQFTLQLNSVTPDDTAVYYCARAPVAGLTFDIWGQGTMVTVSS
VL: QTVVTQEPSVSGAPGQRVTISCTGSSSIIGAGYEVHWYQHLPGTAPKLLIYDSINRPSGVPDRFSGSKSGTSASLAITGLQAEDEADYYCQSSAIFGGGTKLTVL
notes: Whole human IgG4 made in CHO-S cells; also called mAb CRB0089_IgG4; anti-TrkA CRB0089_IgG4
Take B3: the “IC50 of inhibition of NGF-mediated TF1 cell proliferation (MTT assay)” value in [4] is ~0.043 µM and ~0.04 µM. In test [5], the equilibrium dissociation constant (Kd) was 0.0161 µM, the off-rate constant (koff) is 0.000103 s⁻¹ and the kon came to 6420 M⁻¹ s⁻¹. In test [6], the dissociation constant (Kd) was 0.0276 µM, the koff came to 0.000136 s⁻¹ and the kon turned out to be 4950 M⁻¹ s⁻¹.

B4: anti-TrkA scFv CRB0088 (scFv)
scFv: QPVLTQSPPASASLGASVKLTCTLSSGHSSYAIAWHQQQPEKGPRYLMKVNSDGSHNKGDGIPDRFSGSRSGAERYLTISSLHSEDEADYYCQTWGAGGVVFGGGTKLTVLSGGSTSGSGKPGSGEGSSGTEVQLLESGGGLVQPGGSLRLSCAASGFTFSDHYMDWVRQAPGKGLEWVGRIRNKANSYTTEYAASVKGRFTISRDDSKKTLYLQMTSLKTDDTALYYCARDLGASDAFDLWGQGTMVTVSS
notes: From hSPLINT_09 selection
For B4, the figures for the equilibrium dissociation constant (Kd) in [1] and in test [2] were 0.00116 µM and 0.0385 µM, respectively. The koff in [1] stood at 3.2e-06 s⁻¹; in test [2], 0.000131 s⁻¹. Besides, the kon in test [1] is 2760 M⁻¹ s⁻¹; in [2], 3410 M⁻¹ s⁻¹. In addition, the binding result is “no binding (tested: 50 ug/mL)” in the test with human TrkB immunoadhesin, “no binding (tested: 50 ug/mL)” with human TrkC immunoadhesin, “no binding (tested: 50 ug/mL)” with human p75 immunoadhesin and “binds” in [3].
